B1: SG-11: Roseburia hominis protein comprising SEQ ID NO:3; tested as SEQ ID NO:5, SEQ ID NO:7 or FLAG-tagged SEQ ID NO:9 (protein, listed as Rosburia hominis)
chain: LEGEESVVYVGKKGVIASLDVETLDQSYYDETELKSYVDAEVEDYTAEHGKNAVKVESLKVEDGVAKLKMKYKTPEDYTAFNGIELYQGKVVASLAAGYVYDGEFARVEEGKVVGAATKQDIYSEDDLKVAIIRANTDVKVDGEICYVSCQNVKLTGKDSVSIRDGYYLETGSVTASVDVTGQESVGTEQLSGTEQMEMTGEPVNADDTEQTEAAAGDGSFETDVYTFIVYK
B2: SG-11V5: variant of SEQ ID NO:7 with N53S, N83S, C147V, C151S (protein)
chain: MLEGEESVVYVGKKGVIASLDVETLDQSYYDETELKSYVDAEVEDYTAEHGKSAVKVESLKVEDGVAKLKMKYKTPEDYTAFSGIELYQGKVVASLAAGYVYDGEFARVEEGKVVGAATKQDIYSEDDLKVAIIRANTDVKVDGEIVYVSSQNVKLTGKDSVSIRDGYYLETGSVTASVDVTGQESVGTEQLSGTEQMEMTGEPVNADDTEQTEAAAGDGSFETDVYTFIVYK
modifications: Artificial variant of SG-11 (N53S, N83S, C147V, C151S)

Legend:
[1] = tested on: C57BL/6 mice treated with DSS; experiment: concurrent (prophylactic) DSS model of inflammatory bowel disease (Examples 4, 13A); assay type: in vivo; details: for 4KDa-FITC signal in serum: Example 13, first model, SG-11 (SEQ ID NO:9) 50 nmoles/kg i.p. b.i.d. (FIG. 18A, p=0.04), SG-11V5 (printed FIG. 18B, p=0.21)
Procedure: On day six, mice were fasted for four hours and then orally gavaged with 600 mg/kg 4KDa dextran labeled with fluorescein isothiocyanate (FITC) [4KDa-FITC]. One hour after the 4KDa-FITC gavage, mice were euthanized, blood was collected, and FITC signal was measured in serum. […] The magnitude of 4KDa-FITC dextran translocation observed for SG-11 was similar to the positive control of Gly2-GLP2. Results are shown in FIG. 3, and are presented as mean±SEM. The graph in FIG. 3 represents data pooled from 3 independent experiments, each using 10 mice (n=30).
SG-11 was also assessed for its effects on the levels of lipopolysaccharide (LPS) binding protein (LBP) in the blood of the DSS animal with and without SG-11 administration. LBP, which has been linked to clinical disease activity in subjects with inflammatory bowel disease, was also measured by […] in the serum of mice tested in the DSS model described in this Example. […] Results are shown in FIG. 4, and are presented as mean±SEM. The graph in FIG. 4 represents data pooled from 3 independent experiments (n=30; each experiment using 10 mice).
Body weight was measured daily from mice included in the DSS model described in this Example. Percent change from starting weight on day 0 was determined for each mouse. […] Weight loss in mice treated with SG-11 at day 6 was similar to weight loss observed with Gly2-GLP2. The graph in FIG. 5 represents data pooled from two independent experiments (n=20; each experiment using 10 mice).
Gross pathology observations were made in mice included in the concurrent DSS model performed in this Example. […] No differences in clinical scores were observed between mice given DSS and treated with either Gly2-GLP2 or SG-11. The scoring system used was: (0)=no gross pathology, (1)=streaks of blood visible in feces, (2)=completely bloody fecal pellets, (3) bloody fecal material visible in cecum, (4) bloody fecal material in cecum and loose stool, (5)=rectal bleeding. The graph in FIG. 6 represents data pooled from 3 independent experiments (n=30; each experiment using 10 mice).
In addition, histopathology analysis was performed on proximal and distal colon tissues from the DSS model animals. […] LMA Loss of mucosal architecture, Edema=Edema, INF=Inflammation. TMI=Transmural inflammation, MH=Mucosal hyperplasia, DYS=Dysplasia. Graphs represent data pooled from two independent experiments, and are plotted as mean±SEM. Statistical analysis was performed by a one-way ANOVA compared to DSS+vehicle followed by a Fisher's LSD test for multiple comparisons.
Colon length was measured in mice included in the DSS model described above. […] The graphs in FIGS. 8A and 8B represent data pooled from 3 independent experiments (n=30). Data are graphed as mean SEM and are pooled from three independent experiments (n=30; each experiment using 10 mice). Statistical analysis was performed by a one-way ANOVA followed by a Fisher's LSD multiple comparisons test.
Briefly, in the first DSS mouse model (Example 13A), mice were treated on day zero with test compound intraperitoneally (i.p.) and 6 hours later DSS treatment was initiated. Doses administered included 50 nmoles/kg for SG-11 (SEQ ID NO:9) ([…]), and Gly2-GLP2 (0.2 mg/kg), and a dose response for SG-11V5 (SEQ ID NO:19) including 16 nmoles/kg ([…]), 50 nmoles/kg ([…]) and 158 nmoles/kg (4.0 mg/kg). […] Therapeutic protein treatments were administered twice a day for the duration of the DSS exposure.
At the end of each DSS model study, mice were fasted for 4 hours and then orally gavaged with 600 mg/kg 4KDa dextran labeled with FITC [4KDa-FITC]. One hour after the 4KDa-FITC gavage, mice were euthanized, blood was collected, and FITC signal was measured in serum. […] Data in both graphs are plotted as mean±SEM and each figure represent data from an individual experiment (n=10 per group).
Upon completion of the OSS models above. […]

[2] = for precipitation: pH 5.2
Procedure: Effect of additives was also tested at the 3 different pH conditions: 150 mM NaCl (FIGS. 15A, 15D and 15G); 150 mM NaCl and 100 mM arginine (FIGS. 15B, 15E and 15H): and 150 mM NaCl and 0.5 M sorbitol (FIGS. 15C, 15F and 15I). Stability was analyzed by analytical SEC.
Effect of additives was also tested at the 3 different pH conditions: 150 mM NaCl (FIGS. 16A, 16D and 16G); 150 mM NaCl and 100 mM Arg (FIGS. 16B, 16E and 16H); and 150 mM NaCl and 0.5 M sorbitol (FIGS. 16C, 16F and 16I). Stability was analyzed by analytical SEC.

[3] = Example 4, 50 nmoles/kg i.p. b.i.d.
[4] = Example 4, 50 nmoles/kg i.p. b.i.d., vs DSS + vehicle

| Molecule | colon length [1, 3] | colon weight to length ratio [1, 3] | histopathology: edema score of colon [1, 3] | 4KDa-FITC dextran translocation across the epithelial barrier (serum) ([1]; Example 4, 50 nmoles/kg i.p. b.i.d., 2.5% DSS 6 days, vs DSS + vehicle) | body weight [1, 4] | gross pathology (clinical score 0-5) [1, 4] | serum LPS binding protein (LBP) concentration [1, 4] | 4KDa-FITC signal in serum [1] | colon length ([1]; Example 13A (FIG. 22A)) | aggregate formation by analytical SEC ([2]; 100 mM arginine at pH 7.0) | precipitation [2] | gross pathology (clinical score 0-5) ([1]; Example 13, 160 nmoles/kg dose, p<0.002) | body weight ([1]; Example 13A, 158 nmoles/kg, day 6) | serum LBP ([1]; Example 13A, 158 nmoles/kg, p=0.003) | aggregation by analytical SEC ([2]; all conditions tested (pH 5.2, 7.0, 8.0; NaCl, arginine, sorbitol)) |
| --- | --- | --- | --- | --- | --- | --- | --- | --- | --- | --- | --- | --- | --- | --- | --- |
| B1 | prevented colon shortening elicited by DSS | significant improvement in colon weight to length ratios | reduced edema to a similar level as Gly2-GLPs, though the difference did not reach statistical significance | significant reduction in 4KDa-FITC dextran | significantly improved body weight | significantly improved gross pathology | significant reduction in LBP | significantly reduced the 4KDa-FITC signal | significant increase in the colon length | greatly suppressed | precipitated |  |  |  |  |
| B2 |  |  |  |  |  |  |  | reduced the 4KDa-FITC signal, although the difference did not reach statistical significance | significant increase in the colon length |  | precipitated | significant improvement | significant improvement in body weight | significant reduction in LBP production | did not show a large amount of aggregation |

Source: patent publication US20210380994A1, “LACTOCOCCUS LACTIS EXPRESSION SYSTEM FOR DELIVERING PROTEINS EFFICACIOUS FOR THE TREATMENT OF EPITHELIAL BARRIER FUNCTION DISORDERS” (Second Genome, Inc., priority 2018, published 2021)
